{"source": "patent US20100184658A1", "about": "(published 2010); also: test concentration or dose not given here", "binders": {"B1": {"name": "D3 peptide (peptide)", "peptide": "SGRPPMIVWFNRPFLIAVSHTHGQTILFMAKVINPVGA"}}, "assay_in_all_cases": "cell-based or functional assay", "key": {"PRKX": {"target": "T1, PRKX (UniProt P51817 1-358, limits assumed)", "T1 sequence (looked up)": "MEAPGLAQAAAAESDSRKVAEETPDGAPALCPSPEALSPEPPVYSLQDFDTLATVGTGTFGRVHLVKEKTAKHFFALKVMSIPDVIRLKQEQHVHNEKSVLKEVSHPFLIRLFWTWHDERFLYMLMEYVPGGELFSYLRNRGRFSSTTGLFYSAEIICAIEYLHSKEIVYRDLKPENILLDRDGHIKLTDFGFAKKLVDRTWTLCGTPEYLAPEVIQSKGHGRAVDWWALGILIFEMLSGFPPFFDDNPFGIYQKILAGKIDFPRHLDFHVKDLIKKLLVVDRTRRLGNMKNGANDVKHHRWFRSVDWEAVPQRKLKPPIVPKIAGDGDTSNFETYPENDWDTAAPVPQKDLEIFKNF"}, "PDK1": {"target": "T2, PDK1 (human (printed as (h)), UniProt O15530 1-556, limits assumed)", "T2 sequence (looked up)": "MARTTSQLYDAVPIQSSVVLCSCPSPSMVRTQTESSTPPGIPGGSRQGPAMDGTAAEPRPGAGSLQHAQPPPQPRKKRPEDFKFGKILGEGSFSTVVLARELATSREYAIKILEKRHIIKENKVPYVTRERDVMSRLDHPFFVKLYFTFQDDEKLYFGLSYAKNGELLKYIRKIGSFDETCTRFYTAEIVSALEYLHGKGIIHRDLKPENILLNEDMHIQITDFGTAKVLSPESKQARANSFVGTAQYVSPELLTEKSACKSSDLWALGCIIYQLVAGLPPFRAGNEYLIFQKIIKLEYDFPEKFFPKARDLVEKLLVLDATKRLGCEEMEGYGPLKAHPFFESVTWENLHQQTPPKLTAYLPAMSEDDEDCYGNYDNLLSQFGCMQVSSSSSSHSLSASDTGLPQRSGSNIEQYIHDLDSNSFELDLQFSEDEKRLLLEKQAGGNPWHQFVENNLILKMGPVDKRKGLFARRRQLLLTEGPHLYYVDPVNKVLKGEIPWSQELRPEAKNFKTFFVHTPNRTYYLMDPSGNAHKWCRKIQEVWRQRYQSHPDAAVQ"}, "[1]": {"target": "MAPK8 (JNK1) Mitogen-activated protein kinase 8 (UniProt P45983 1-427, limits assumed)", "sequence (P45983 whole entry)": "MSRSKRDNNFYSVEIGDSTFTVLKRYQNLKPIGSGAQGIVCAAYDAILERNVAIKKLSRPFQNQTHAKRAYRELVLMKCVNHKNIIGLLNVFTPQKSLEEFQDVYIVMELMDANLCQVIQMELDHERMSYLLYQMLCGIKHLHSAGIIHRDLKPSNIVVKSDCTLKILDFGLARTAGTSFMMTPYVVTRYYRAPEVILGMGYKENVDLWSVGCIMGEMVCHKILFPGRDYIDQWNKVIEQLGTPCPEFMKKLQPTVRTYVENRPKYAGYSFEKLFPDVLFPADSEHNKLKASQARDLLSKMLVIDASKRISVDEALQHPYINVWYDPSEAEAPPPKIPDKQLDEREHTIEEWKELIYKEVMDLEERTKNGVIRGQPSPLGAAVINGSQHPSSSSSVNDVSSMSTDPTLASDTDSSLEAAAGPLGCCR"}, "PIM2": {"target": "PIM2 (UniProt Q9P1W9 1-311, limits assumed)", "sequence (Q9P1W9 whole entry)": "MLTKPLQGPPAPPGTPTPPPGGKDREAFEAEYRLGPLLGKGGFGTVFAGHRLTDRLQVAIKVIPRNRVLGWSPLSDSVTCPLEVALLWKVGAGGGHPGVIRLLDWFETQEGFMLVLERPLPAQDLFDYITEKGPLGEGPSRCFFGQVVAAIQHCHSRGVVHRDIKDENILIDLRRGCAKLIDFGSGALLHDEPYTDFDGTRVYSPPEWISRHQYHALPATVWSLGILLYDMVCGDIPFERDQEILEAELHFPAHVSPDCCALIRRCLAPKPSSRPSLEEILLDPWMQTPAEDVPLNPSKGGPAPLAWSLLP"}, "NEK7": {"target": "NEK7 (UniProt Q8TDX7 1-302, limits assumed)", "sequence (Q8TDX7 whole entry)": "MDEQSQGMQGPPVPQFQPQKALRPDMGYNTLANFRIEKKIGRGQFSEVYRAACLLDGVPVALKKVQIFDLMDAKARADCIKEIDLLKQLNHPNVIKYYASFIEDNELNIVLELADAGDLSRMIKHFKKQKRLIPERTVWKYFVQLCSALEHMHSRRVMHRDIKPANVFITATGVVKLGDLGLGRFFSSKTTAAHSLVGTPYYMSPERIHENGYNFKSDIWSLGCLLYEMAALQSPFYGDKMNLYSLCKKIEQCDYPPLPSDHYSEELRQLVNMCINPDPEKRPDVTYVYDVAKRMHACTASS"}, "MST4": {"target": "MST4 (UniProt Q9P289 1-416, limits assumed)", "sequence (Q9P289 whole entry)": "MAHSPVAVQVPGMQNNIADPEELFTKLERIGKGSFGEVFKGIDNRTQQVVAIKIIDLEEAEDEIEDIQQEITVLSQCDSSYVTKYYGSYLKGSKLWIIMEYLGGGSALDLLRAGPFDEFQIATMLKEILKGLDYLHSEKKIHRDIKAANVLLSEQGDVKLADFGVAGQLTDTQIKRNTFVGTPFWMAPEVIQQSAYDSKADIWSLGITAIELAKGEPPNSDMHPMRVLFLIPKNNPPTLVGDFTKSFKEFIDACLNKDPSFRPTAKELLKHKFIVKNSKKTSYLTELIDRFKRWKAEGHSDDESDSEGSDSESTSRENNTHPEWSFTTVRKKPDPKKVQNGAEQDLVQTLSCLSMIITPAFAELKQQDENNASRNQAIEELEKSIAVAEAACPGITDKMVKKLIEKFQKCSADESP"}, "[2]": {"target": "T3, STK4 (MST1) Serine/threonine kinase 4 (UniProt Q13043 1-487, limits assumed)", "T3 sequence (looked up)": "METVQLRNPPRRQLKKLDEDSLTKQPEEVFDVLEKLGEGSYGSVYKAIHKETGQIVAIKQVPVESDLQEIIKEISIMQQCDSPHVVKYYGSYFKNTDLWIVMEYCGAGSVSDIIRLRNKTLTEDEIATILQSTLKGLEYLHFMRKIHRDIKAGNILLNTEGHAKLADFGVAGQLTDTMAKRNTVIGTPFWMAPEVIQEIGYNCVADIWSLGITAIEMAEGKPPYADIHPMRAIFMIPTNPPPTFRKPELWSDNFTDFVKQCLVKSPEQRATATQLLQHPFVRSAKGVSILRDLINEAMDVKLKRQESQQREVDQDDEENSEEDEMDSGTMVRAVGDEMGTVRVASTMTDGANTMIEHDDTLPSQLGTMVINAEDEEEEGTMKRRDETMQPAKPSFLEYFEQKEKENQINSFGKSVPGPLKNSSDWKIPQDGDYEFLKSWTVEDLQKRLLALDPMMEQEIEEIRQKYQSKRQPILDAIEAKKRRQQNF"}, "GRK5": {"target": "GRK5 (UniProt P34947 1-590, limits assumed)", "sequence (P34947 whole entry)": "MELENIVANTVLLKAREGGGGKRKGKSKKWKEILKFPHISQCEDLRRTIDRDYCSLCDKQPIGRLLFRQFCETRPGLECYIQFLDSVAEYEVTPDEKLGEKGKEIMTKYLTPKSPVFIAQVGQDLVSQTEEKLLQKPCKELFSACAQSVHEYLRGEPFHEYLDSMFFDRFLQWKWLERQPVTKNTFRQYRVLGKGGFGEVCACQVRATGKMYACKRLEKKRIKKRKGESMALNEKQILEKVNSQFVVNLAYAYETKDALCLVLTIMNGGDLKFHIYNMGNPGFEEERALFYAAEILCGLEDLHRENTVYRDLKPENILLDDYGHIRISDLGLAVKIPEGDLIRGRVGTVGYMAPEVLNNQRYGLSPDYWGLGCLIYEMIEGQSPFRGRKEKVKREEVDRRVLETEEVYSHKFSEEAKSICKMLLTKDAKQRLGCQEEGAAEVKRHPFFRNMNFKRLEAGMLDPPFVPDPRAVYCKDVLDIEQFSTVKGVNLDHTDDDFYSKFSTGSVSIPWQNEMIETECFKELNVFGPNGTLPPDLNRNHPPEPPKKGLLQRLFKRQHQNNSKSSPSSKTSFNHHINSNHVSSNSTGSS"}, "[3]": {"target": "T4, PHKG2 Phosphorylase kinase, gamma 2 (UniProt P15735 1-406, limits assumed)", "T4 sequence (looked up)": "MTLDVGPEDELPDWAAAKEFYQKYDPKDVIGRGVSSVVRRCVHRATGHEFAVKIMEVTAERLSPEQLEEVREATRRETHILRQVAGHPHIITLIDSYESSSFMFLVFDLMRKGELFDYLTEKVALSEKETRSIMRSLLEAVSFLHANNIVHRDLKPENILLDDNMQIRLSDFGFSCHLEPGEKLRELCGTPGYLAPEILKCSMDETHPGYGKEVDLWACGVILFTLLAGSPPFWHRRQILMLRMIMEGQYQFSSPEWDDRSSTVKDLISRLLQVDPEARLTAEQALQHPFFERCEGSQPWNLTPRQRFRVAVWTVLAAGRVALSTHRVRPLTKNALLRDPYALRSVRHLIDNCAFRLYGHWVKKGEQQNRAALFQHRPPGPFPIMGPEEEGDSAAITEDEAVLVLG"}, "SRMS (Srm)": {"target": "SRMS (Srm) (UniProt Q9H3Y6 1-488, limits assumed)", "sequence (Q9H3Y6 whole entry)": "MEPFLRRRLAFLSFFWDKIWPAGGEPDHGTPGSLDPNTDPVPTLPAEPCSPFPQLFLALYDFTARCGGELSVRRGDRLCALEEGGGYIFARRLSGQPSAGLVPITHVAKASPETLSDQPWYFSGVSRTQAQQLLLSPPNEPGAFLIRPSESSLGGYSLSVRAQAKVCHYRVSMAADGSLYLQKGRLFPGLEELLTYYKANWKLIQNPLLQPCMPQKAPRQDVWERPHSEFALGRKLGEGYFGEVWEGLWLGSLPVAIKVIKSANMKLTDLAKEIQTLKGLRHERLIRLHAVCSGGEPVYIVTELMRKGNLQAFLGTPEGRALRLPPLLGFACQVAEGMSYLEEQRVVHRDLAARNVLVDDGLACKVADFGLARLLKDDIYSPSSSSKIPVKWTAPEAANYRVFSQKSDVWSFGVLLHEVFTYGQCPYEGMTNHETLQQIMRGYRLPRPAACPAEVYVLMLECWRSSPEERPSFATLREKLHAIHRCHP"}, "[4]": {"target": "T5, STK3 (MST2) Serine/threonine kinase 3 (STE20 homolog, yeast) (UniProt Q13188 1-491, limits assumed)", "T5 sequence (looked up)": "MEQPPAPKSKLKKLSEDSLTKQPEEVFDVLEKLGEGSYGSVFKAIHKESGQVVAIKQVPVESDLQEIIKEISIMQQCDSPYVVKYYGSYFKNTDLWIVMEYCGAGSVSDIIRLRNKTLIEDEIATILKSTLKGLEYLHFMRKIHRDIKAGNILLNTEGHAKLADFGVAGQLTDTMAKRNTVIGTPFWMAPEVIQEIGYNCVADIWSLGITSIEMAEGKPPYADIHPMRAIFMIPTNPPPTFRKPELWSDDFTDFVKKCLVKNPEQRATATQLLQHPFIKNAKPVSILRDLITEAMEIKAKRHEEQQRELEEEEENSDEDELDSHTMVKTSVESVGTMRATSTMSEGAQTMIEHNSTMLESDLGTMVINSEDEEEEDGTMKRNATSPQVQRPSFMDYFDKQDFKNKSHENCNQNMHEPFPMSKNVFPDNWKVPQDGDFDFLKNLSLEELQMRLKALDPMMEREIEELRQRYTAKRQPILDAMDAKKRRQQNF"}, "[5]": {"target": "BRAF V-raf murine sarcoma viral oncogene homolog B1 (UniProt P15056 416-766, limits assumed)", "sequence (P15056 416-766 limits assumed)": "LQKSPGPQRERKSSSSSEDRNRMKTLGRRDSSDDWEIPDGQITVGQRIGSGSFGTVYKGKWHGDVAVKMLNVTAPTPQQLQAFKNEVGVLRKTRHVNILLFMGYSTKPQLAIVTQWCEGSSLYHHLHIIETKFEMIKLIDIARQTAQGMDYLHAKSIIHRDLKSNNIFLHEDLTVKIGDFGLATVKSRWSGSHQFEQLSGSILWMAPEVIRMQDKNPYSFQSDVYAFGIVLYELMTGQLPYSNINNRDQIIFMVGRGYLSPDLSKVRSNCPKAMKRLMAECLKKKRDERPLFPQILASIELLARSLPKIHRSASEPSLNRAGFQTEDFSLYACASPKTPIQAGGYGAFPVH"}}}
{"binder": "B1", "values": [{"measurement": "% Inhibition mean", "setting": "PRKX", "value": 100, "unit": "%"}, {"measurement": "% Inhibition mean", "setting": "PDK1", "value": 64, "unit": "%"}, {"measurement": "% Inhibition mean", "setting": "[1]", "value": 89, "unit": "%"}, {"measurement": "% Inhibition mean", "setting": "PIM2", "value": 89.9, "unit": "%"}, {"measurement": "% Inhibition mean", "setting": "NEK7", "value": 73.8, "unit": "%"}, {"measurement": "% Inhibition mean", "setting": "MST4", "value": 101, "unit": "%"}, {"measurement": "% Inhibition mean", "setting": "[2]", "value": 99, "unit": "%"}, {"measurement": "% Inhibition mean", "setting": "GRK5", "value": 50.8, "unit": "%"}, {"measurement": "% Inhibition mean", "setting": "[3]", "value": 87, "unit": "%"}, {"measurement": "% Inhibition mean", "setting": "SRMS (Srm)", "value": 46.5, "unit": "%"}, {"measurement": "% Inhibition mean", "setting": "[4]", "value": 90.4, "unit": "%"}, {"measurement": "% Inhibition mean", "setting": "[5]", "value": 100, "unit": "%"}]}
